Experimental data reported in the DeepSol protein solubility set.

Experiment: soluble on expression in E. coli; label from the status in PepcDB or PDB records

Sequence | soluble on expression in E. coli
MRKSLTDIYEARVDAEELRADPAQHAVLEDLEGIRQWLEAHPERKRGLFGLFAAKEEPPKGLYLWGGVGRGKSMIMDLFTEAVEIPMKRRVHFHAFMQEVQQGMHEARKKGVEDALQPVADSVAGQVRLLAFDEMQITDITDAMVVGRLFQKLFEQGVVIVTTSNRPPEGLYENGLNREVFLPFIDLLRERMTVIELESPTDYRQHRLQGAQVFFHPARKAEQAIARIWSDLTGGDRGHPMRLPVNGRTVEIPRFANGVGRATFWGLCARPLGPADFLAIAEACRVLILEDIPRLSAENYNEAKRFVTLIDALYEARVRLIASAADEPERLYIEGEGSFEFERTASRLREMQSADWANLEHHHHHH | not soluble
MRKWETFIIDYMNKSKKTFVKTIDIEHHLKTLLKQEYDDDGGYFKYSSTLKNMVEEEKIQPVKARGHNHQTPPVFNEYRLVKKERRTNPTHIKKLMTDYLLFNMTAFYDEAEFEKWKFYIDRVHAFLTQNSDTKNNILKANERSFELFRNEKFLLDKEGTKFLANLGLTLSDLNCRRTYEPFVEYQPNPSKKPKNILIIENRDTFDSIKELMIDGIDTWSRITFDMVIYGEGDKIQRSFYFLEEYELEDYEVYYFGDLDARGIHICSELIKIDNRVKPFIPFYIELLNRYGHEPSTRTIERKLKQTIIDDSLKLFSSFFEGDYIDELKRYTDIIQNVQIYIPQEGLNLVILRKLGERR | not soluble
MRLCHSIILFNSLISISICSKADDPALLVASEFKEHFNVEEKQLETVEELLIKMKKLAHSRSFKGREFGHDAVEDSKKEVAISTQQGTINKKVSPFLFEGDIFLSRRQAVDILKALSKDKTKRLRRSFVSDKTATWKTMPIKYRFHESIDFYTISQIIAAIRFWEDSTCITFENVSDSPDGDYIEFFSGQGCYSMIGRNGGRQGISIGESCVKASFFVMGVIEHEIGHALGLWHEQSRPDALGYVTIERDFILPSYISDFLQRDDEIDTLGIPYDLGSVMHYGSTAFSVDQKSKTVVTRDSLYQQTIGQREKLSFYDVATINTAYCKDECKSEKTKCENGGYMRPSKCSECLCPDGLGGEKCEKNEDSKNAECGGIIKLTEEWKEIESPNYPDPGYEADQKCSWLLKAEKGKRVEIEFIEDFSFLCTSTCVDFVELKISDDLRNTGFRFCCYDKPEISFVSQTDTAIIIFRSQLSTDIGFKIQAKSNELIIKTFKNSQKTKMQILFPKLSLKNNSADAEPRTTIAPTIITTTLAPITVDAPNVWADWGEWSMCSRTCGGCGIRSRVRSCRSKKCEGRRQEFGTCNLKACPVDKHCAKLLSNNRLCNGKVCTKNDIAISSCDAPQCCPPFINVDGVCQSDQENQHDELWLSI | not soluble
MRLITFAGHYFSRIIIMINRALVRSRVLQQAYVYYHRDDADIQSAEKELLNSLEQTYDLYLYYLLLVPELTRLHAEALEANKNKHLATEKDKNPNLRMVRNRLAEKIESCRPLWVRAEQNALNWRSEEAFLRRLLKKIHLSETFTRYMRSDATDDFEADRLFWNELMRDIILPDEELAEVMEEQSIFWDNQIQLIEKIETEEAPDIEEVEQSVRQAVADGNYQTIRQENAPIEIVKEFVLKTIRRIEQDTDPSAILLPAYKEKDDAVFGTTLLRNAIINGQEYRH | not soluble
MRLKKLYLKGFKSFGRPSLIGFSDRVTAIVGPNGSGKSNIIDAIKWVFGEQSKKELRASEKFDMIFAGSENLPPAGSAYVELVFEENGEEITVARELKRTGENTYYLNGSPVRLKDIRDRFAGTGLGVDFYSIVGQGQIDRIVNASPEELRLESSKHPTSLVPRGSYQRVNESFNRFISLLFFGGEGRLNIVSEAKSILDAGFEISIRKPGRRDQKLSLLSGGEKALVGLALLFALMEIKPSPFYVLDEVDSPLDDYNAERFKRLLKENSKHTQFIVITHNKIVMEAADLLHGVTMVNGVSAIVPVEVEKILEVGSHHHHHH | soluble
MRLRAILASLALALTSLGAQAETIRVAIGTQDTTINCAAGGLLIRELGLLEKYLPRDGRYKDADYRVEWKNFTSGAPLTNEMVAGKLDFGAMADFPGTFNGVAFAAAGKRSLFISVLSGSTRGSGNGIVVPSGSPVQSLAELKGQTISVPFASTAHGMLLRAVAAQGWDPQRDVTIIAQPPEIAGSALQANKIAAHADFVPFAELFPNRGFARKIYDGSQANAPTFHGALVDAAYAERYPEVVVAYLRASIEANRLLAAEPEKYSELIEKVTGIEAEVNYLFHGPLGLQTRDQAWKPEYRQALATSIDTLKLLKKADRGLDVERFVDDRYIREAYRQAGLDYQAALADYAPSPLRASDARSGRPIEEFERVAQIWVKGEARVRHYASPESALADLAELKAQGKAIRAIYAQDRDSGIKLLANQAWFVRDGEGRLNAFLLREQAQDYARRHGGEVRDFAAASQQALALR | not soluble
